From patent US20240392002A1 (EXELIXIS, published 2024) come the findings set out here.

The labels stand for the following.
B1: I2A-10 BC1 1×2 B-body (I2A-10 x SP34-89) (bispecific antibody)
chain 1: not shown
chain 2: EVQLVESGGGLVQPGGSLRLSCAASGFTFSSYFIHWVRQAPGKGLEWVAGIYPSDGYTSYADSVKGRFTISADTSKNTAYLQMNSLRAEDTAVYYCARYYSGMDYWGQGTLVTVSSASPREPQVYTDPPSRDELTKNQVSLTCLVKGFYPSDIAVEWESNGQPENNYKTTPPVLDSDGSFFLYSKLTVDKSRWQQGNVFSCSVMHEALHNHYTQKSLSLSGEC
chain 3: DIQMTQSPSSLSASVGDRVTITCRASQSVSSAVAWYQQKPGKAPKLLIYSASSLYSGVPSRFSGSRSGTDFTLTISSLQPEDFATYYCQQYYYYPGTFGQGTKVEIKRTPREPQVYTLPPSRDELTKNQVSLKCLVKGFYPSDIAVEWESNGQPENNYKTTPPVLDSDGSFFLYSKLTVDKSRWQQGNVFSCSVMHEALHNHYTQKSLSLSKSCTASSGGSSSGQAVVTQEPSLTVSPGGTVTLTCRSSTGAVTTSNYANWVQQKPGQAPRGLIGGTNKRAPWTPARFSGSLLGGKAALTITGAQAEDEADYYCALWYSNLWVFGGGTKLTVLGRTVAAPSVFIFPPSDEQLKSGTASVVCLLNNFYPREAKVQWKVDNALQSGNSQESVTEQDSKDSTYSLSSTLTLSKADYEKHKVYACEVTHQGLSSPVTKSFNRGECDKTHTCPPCPAPEAAGGPSVFLFPPKPKDTLMISRTPEVTCVVVDVSHEDPEVKFNWYVDGVEVHNAKTKPREEQYNSTYRVVSVLTVLHQDWLNGKEYKCKVSNKALKAPIEKTISKAKGQPREPQVCTLPPSREEMTKNQVSLSCAVKGFYPSDIAVEWESNGQPENNYKTTPPVLDSDGSFFLVSKLTVDKSRWQQGNVFSCSVMHEALHNHYTQKSLSLSPGK
chain 4: EVQLVESGGGLVQPGGSLRLSCAASGFTFNTYAMNWVRQAPGKGLEWVARIRSKYNNYATYYADSVKGRFSISRDDSKNTAYLQMNSLRAEDTAVYYCVRHGNFGNSYVSWFAYWGQGTLVTVSSASTKGPSVFPLAPSSKSTSGGTAALGCLVKDYFPEPVTVSWNSGALTSGVHTFPAVLQSSGLYSLSSVVTVPSSSLGTQTYICNVNHKPSNTKVDKKVEPPKSC
B2: I2A-27 BC1 1×2 B-body (I2A-27 x SP34-89), Example 20 (bispecific antibody)
chain 1: not shown
chain 2: EVQLVESGGGLVQPGGSLRLSCAASGFTFKGYYIHWVRQAPGKGLEWVAAIYPYGGSTDYADSVKGRFTISADTSKNTAYLQMNSLRAEDTAVYYCARVYIYGVFDYWGQGTLVTVSSASPREPQVYTDPPSRDELTKNQVSLTCLVKGFYPSDIAVEWESNGQPENNYKTTPPVLDSDGSFFLYSKLTVDKSRWQQGNVFSCSVMHEALHNHYTQKSLSLSGEC
chain 3: B1 chain 3 with Y93S, Y94S, G96R
chain 4: B1 chain 4
B3: I2A-10 IgG1 (antibody, V domains shown)
VH: EVQLVESGGGLVQPGGSLRLSCAASGFTFSSYFIHWVRQAPGKGLEWVAGIYPSDGYTSYADSVKGRFTISADTSKNTAYLQMNSLRAEDTAVYYCARYYVSGMDYWGQGTLVTVSS
VL: DIQMTQSPSSLSASVGDRVTITCRASQSVSSAVAWYQQKPGKAPKLLIYSASSLYSGVPSRFSGSRSGTDFTLTISSLQPEDFATYYCQQYYYYPGTFGQGTKVEIKR
notes: bivalent monospecific native human full-length IgG1; the Domain F / Domain A entries end with AS / RT of the junction to the constant domain; also called clone I2-A10
B4: I2C-23 IgG1 (antibody, V domains shown)
VH: EVQLVESGGGLVQPGGSLRLSCAASGFTFSSYEIHWVRQAPGKGLEWVASIYPFSGDTYYADSVKGRFTISADTSKNTAYLQMNSLRAEDTAVYYCARPGRAIYYAVMDYWGQGTLVTVSS
VL: DIQMTQSPSSLSASVGDRVTITCRASQSVSSAVAWYQQKPGKAPKLLIYSASSLYSGVPSRFSGSRSGTDFTLTISSLQPEDFATYYCQQAGSHLFTFGQGTKVEIK
notes: human IgG1
B5: I2C-6 IgG1 (antibody, V domains shown)
VH: EVQLVESGGGLVQPGGSLRLSCAASGFTFSWYFIHWVRQAPGKGLEWVARIYSTGGYTEYADSVKGRFTISADTSKNTAYLQMNSLRAEDTAVYYCARSAFFGALDYWGQGTLVTVSS
VL: B4 VL with A91Y, G92P, H94G, L95P, F96E
notes: human IgG1
B6: I2A-19 IgG1 (antibody, V domains shown)
VH: EVQLVESGGGLVQPGGSLRLSCAASGFTFSSYFIHWVRQAPGKGLEWVAWIYPSGSYTYYADSVKGRFTISADTSKNTAYLQMNSLRAEDTAVYYCAREMDRVGYSGMDYWGQGTLVTVSS
VL: B4 VL with A91Y, G92R, S93T, H94P, F96G
notes: human IgG1
B7: I2A-34 IgG1 (antibody, V domains shown)
VH: EVQLVESGGGLVQPGGSLRLSCAASGFTFSWYVIHWVRQAPGKGLEWVAYIAPYTGSTYYADSVKGRFTISADTSKNTAYLQMNSLRAEDTAVYYCARAFFGIRLGLDYWGQGTLVTVSS
VL: B4 VL with G92I, H94S, L95P, F96Y
notes: human IgG1
B8: I2A-25 IgG1 (antibody, V domains shown)
VH: EVQLVESGGGLVQPGGSLRLSCAASGFTFYGYTIHWVRQAPGKGLEWVAAIYPYTDSTRYADSVKGRFTISADTSKNTAYLQMNSLRAEDTAVYYCARDYRRALDYWGQGTLVTVSS
VL: B4 VL with A91Y, G92T, S93D, H94F, L95P, F96W
notes: human IgG1
B9: I2A-32 IgG1 (antibody, V domains shown)
VH: EVQLVESGGGLVQPGGSLRLSCAASGFTFQSYVIHWVRQAPGKGLEWVAAIYPYSSSTIYADSVKGRFTISADTSKNTAYLQMNSLRAEDTAVYYCARSWSVYLGMDYWGQGTLVTVSS
VL: B4 VL with A91S, G92Y, S93D, H94S, L95P, F96R
notes: human IgG1
B10: I2A-11 IgG1 (antibody, V domains shown)
VH: EVQLVESGGGLVQPGGSLRLSCAASGFTFSSYVIHWVRQAPGKGLEWVAAIYPYTSSTQYADSVKGRFTISADTSKNTAYLQMNSLRAEDTAVYYCARSYGTGGFDYWGQGTLVTVSS
VL: B4 VL with A91W, G92Y, H94Y, L95P, F96L
notes: human IgG1
B11: non-mutagenized SP34-89 monovalent B-Body (bispecific antibody, V domains shown)
VH: EVQLVESGGGLVQPGGSLRLSCAASGFTFNTYAMNWVRQAPGKGLEWVARIRSKYNNYATYYADSVKGRFSISRDDSKNTAYLQMNSLRAEDTAVYYCVRHGNFGNSYVSWFAYWGQGTLVTV
VL: QAVVTQEPSLTVSPGGTVTLTCRSSTGAVTTSNYANWVQQKPGQAPRGLIGGTNKRAPWTPARFSGSLLGGKAALTITGAQAEDEADYYCALWYSNLWVFGGGTKLTVL
notes: cloned into one arm of a 1×1 BC1 B-Body

Where a chain is given by its changes, count along the chain named. Numbers in names are those of the source.

Chain of human CD3 delta and epsilon heterodimer (P07766 23-126, stated change not applied, chain 1 of 2): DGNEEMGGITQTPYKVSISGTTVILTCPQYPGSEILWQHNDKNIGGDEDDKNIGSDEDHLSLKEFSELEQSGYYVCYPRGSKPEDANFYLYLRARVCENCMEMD
Chain of human CD3 delta and epsilon heterodimer (P04234 22-105, stated change not applied, chain 2 of 2): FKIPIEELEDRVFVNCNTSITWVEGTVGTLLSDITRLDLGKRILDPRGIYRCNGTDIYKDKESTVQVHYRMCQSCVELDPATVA
Chain of ROR1 on tumor cell lines (Q01973 30-937 limits assumed): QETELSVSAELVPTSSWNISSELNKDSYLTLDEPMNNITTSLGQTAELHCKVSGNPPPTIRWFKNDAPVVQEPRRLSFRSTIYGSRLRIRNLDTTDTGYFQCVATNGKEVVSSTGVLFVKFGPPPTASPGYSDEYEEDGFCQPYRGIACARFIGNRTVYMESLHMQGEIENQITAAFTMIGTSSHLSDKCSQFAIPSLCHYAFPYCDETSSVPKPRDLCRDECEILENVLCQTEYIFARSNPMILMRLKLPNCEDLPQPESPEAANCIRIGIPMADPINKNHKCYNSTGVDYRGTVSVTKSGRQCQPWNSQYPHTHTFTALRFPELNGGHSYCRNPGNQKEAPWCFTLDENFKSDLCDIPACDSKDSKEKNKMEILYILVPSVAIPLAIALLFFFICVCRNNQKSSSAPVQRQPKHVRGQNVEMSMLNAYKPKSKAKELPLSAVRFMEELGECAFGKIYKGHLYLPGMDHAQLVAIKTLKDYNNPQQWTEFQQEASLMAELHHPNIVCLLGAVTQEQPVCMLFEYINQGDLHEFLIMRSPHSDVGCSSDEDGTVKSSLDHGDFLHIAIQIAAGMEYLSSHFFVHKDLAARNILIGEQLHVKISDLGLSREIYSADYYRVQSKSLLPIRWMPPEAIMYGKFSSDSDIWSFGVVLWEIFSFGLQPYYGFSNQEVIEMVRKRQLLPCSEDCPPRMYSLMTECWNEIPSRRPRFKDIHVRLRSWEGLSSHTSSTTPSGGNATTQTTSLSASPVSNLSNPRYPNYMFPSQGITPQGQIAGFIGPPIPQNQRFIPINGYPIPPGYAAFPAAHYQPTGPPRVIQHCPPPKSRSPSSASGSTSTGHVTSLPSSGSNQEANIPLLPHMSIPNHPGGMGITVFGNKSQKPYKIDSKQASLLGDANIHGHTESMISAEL

One assay addresses ROR1 on tumor cell lines (human, UniProt Q01973 30-937). In words: cell-based or functional assay.
For B1, the “EC50, CD8+ T cell mediated killing of MDA-MB-231 (LDH)” value was 13 pM.
Same read-out and setting: for B2 the value was 8.2 pM.

The target in the next assay is T1, extracellular domain of human ROR1 (human, UniProt Q01973 30-406).
T1 construct: bought protein; biotinylated in the bivalent assay format; also called Acro Cat. No. RO1-H522y
T1 sequence (Q01973 30-406 limits assumed): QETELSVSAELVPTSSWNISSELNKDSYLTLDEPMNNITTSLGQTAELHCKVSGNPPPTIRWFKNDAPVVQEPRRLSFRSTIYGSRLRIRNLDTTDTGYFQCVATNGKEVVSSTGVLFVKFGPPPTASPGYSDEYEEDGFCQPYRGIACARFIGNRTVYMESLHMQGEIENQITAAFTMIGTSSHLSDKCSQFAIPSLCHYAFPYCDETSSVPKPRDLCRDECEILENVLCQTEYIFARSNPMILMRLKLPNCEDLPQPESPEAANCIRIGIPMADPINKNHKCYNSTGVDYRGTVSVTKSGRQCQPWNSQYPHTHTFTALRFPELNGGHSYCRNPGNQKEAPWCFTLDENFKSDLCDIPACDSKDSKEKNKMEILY
In words: BLI (Octet), IgG1, two-fold serial dilution 200-12.5 nM. An excerpt: (§1) To measure binding affinity in ROR binder discovery campaigns, the VL and VH domains identified in the phage screen described above were formatted into a bivalent monospecific native human full-length IgG1 architecture and immobilized to a biosensor on an Octet (Pall ForteBio) biolayer interferometer. Soluble ROR antigens, including the extracellular domains of ROR1 (Acro Cat. No. RO1-H522γ) and ROR2 (Acro Cat. No. R02-H52E5), as well as the individual ROR1 Frizzled (Acro Cat. No. RO1-H5222), Ig-like (Acro Cat. No. RO1-H5221), and Kringle (Acro Cat. No. RO1-H5223) domains, were then added to the system and binding measured.
The VH and VL sequences above were formatted into a bivalent monospecific native human full-length IgG1 architecture.
A general note: Biolayer interferometry detects binding as a change in optical thickness at a sensor tip.
For the molecule B3, the dissociation constant Kd (in general, a measure of binding affinity in units of concentration) came to 820 pM; the off-rate constant (koff) (as a rule, the rate constant with which the complex falls apart) was determined as 0.00038 s⁻¹; the kon (usually the rate constant with which the complex forms) came to 538000 M⁻¹ s⁻¹.

For a further assay, the target named is T2, extracellular domain of human ROR2 (human, UniProt Q01974 34-403).
T2 construct: bought protein; biotinylated in the bivalent assay format; also called Acro Cat. No. RO2-H52E5
T2 sequence (Q01974 34-403 limits assumed): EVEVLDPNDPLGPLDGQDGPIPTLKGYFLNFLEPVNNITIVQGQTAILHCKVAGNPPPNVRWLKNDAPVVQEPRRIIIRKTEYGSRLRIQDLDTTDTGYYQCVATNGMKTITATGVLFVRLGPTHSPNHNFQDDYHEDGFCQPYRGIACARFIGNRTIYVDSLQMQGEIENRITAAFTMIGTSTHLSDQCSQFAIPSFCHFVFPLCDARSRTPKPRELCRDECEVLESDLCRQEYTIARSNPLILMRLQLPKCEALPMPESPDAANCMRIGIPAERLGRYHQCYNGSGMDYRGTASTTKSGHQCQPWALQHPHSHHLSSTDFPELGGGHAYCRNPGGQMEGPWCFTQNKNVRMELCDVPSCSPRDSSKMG
The experiment in a line: BLI, IgG1 on biosensor, soluble ROR ectodomain.
Description: as §1
(§2) ROR binding candidates, formatted in the bivalent monospecific native human full-length IgG1 architecture, were further characterized for binding to ROR1 and/or ROR2. […] ROR binding candidates were also characterized for their binding to specific ROR1 domains.
With B4, the binding result is listed as “binds”.
For B5, the binding result is reported as “binds”.
With B6, the binding result is “binds”.
On the same count and under the same terms, for B7 the value was “binds”.
B8: the binding result is listed as “no binding”.
Still for that read-out and setting: as for B9, the entry is “no binding”; as for B10, “binds”; as for B3, “binds”.

Another assay concerns the target T1, extracellular domain of human ROR1. In words: BLI, IgG1 on biosensor, soluble ROR ectodomain.
Description: as §1, §2
Regarding B4, the binding result is “binds”.
On to B5, for which the binding result is given as “binds”.
B6: the binding result is on record as “binds”.
For the molecule B7, the binding result is “binds”.
Still for that read-out and setting: for B8 the value was “binds”; for B9, “binds”; for B10, “binds”.

The next assay deals with T3, ROR1 Frizzled domain (human, UniProt Q01973 165-299).
T3 construct: also called FZ domain; Acro Cat. No. RO1-H5222
T3 sequence (Q01973 165-299): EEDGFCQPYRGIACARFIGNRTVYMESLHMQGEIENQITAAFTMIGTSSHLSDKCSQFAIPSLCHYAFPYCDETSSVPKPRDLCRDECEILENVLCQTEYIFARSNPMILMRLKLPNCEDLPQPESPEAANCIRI
In words: BLI, IgG1 on biosensor, soluble ROR1 domain.
Description: as §1, §2
For B4, the binding result is on record as “binds”.
With B5, the binding result was “binds”.
B6: the binding result is on record as “binds”.
Take B7: the binding result is reported as “binds”.
Regarding B8, the binding result is recorded as “binds”.
The same measure, in the same setting: for B9 the value was “binds”.
As for B10, the binding result is “binds”.

Another assay addresses human CD3 delta and epsilon heterodimer (human, UniProt P07766 23-126; P04234 22-105). In words: BLI (Octet), two-fold serial dilution 200-12.5 nM of the construct.
Consider B11, for which the dissociation constant (Kd) was 23000 pM, the koff amounted to 0.0071 s⁻¹ and the kon came to 300000 M⁻¹ s⁻¹.
